Data on ten substances can be found in US20240173421A1.

Like-named read-outs stand apart in the source and are kept apart here.

Test [1] concerns the target CD16a (FcγRIIIa) on Jurkat NFAT reporter cells (UniProt P08637).
Test [2] shares this target. The source holds these as a separate data set.
The target is the same in test [3]. Put plainly: cell-based or functional assay.
Test [4] deals with Human FcγRI (Example 8) (human) (UniProt P12314). Nature of the test: BLI, receptor on SAX sensor. (In general: Biolayer interferometry detects binding as a change in optical thickness at a sensor tip.)
For test [5], the target named is Human F158 FcγRIIIa (Example 8) (human) (UniProt P08637). Put plainly: BLI, receptor on SAX sensor.
The target of test [6] is Human H131 FcγRIIa (Example 8) (human) (UniProt P12318). Put plainly: BLI, receptor on SAX sensor.
Test [7] deals with Human V158 FcγRIIIa (Example 8) (human) (UniProt P08637). Nature of the test: BLI, receptor on SAX sensor.
The target in test [8] is Human F158 FcγRIIIa (Example 8) (human) (UniProt P08637). Put plainly: BLI; ratio to KD of the unconjugated antibody.
Test [9] deals with Human FcγRI (Example 8) (human) (UniProt P12314). Nature of the test: BLI; ratio to KD of the unconjugated antibody.
Test [10] concerns the target Human V158 FcγRIIIa (Example 8) (human) (UniProt P08637). Nature of the test: BLI; ratio to KD of the unconjugated antibody.

Chain of CD16a (FcγRIIIa) on Jurkat NFAT reporter cells (P08637 17-254 limits assumed): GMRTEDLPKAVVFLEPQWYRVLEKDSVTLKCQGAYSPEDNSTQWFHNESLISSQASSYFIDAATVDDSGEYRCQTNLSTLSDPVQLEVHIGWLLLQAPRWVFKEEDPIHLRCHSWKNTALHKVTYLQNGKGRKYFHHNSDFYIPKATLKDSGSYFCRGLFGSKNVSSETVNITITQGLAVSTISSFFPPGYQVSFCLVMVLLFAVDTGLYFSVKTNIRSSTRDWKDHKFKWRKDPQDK

Consider obinituzumab-AF (antibody), for which the EC50 (read off the curve), FcγRIIIa NFAT reporter assay in test [1] amounted to 0.7 ng/mL.

For the substance obinituzumab-WT (antibody), the EC50 (read off the curve), FcγRIIIa NFAT reporter assay in test [1] is 7 ng/mL.

rituximab-AF (antibody) showed an EC50 (read off the curve), FcγRIIIa NFAT reporter assay in test [2] of 1 ng/mL.

The term Kd denotes the equilibrium constant for the complex coming apart. A high value points to lower affinity. In [3], Anti-HER2 S239D I332E (antibody) registered a CD16a NFAT EC50 of 1.5 ng/mL. Also, the equilibrium dissociation constant (Kd) in test [4] was 0.1 nM.

The substance Anti-HER2-mcPEG12(8) (antibody) came in with a CD16a NFAT EC50 in test [3] greater than 2000 ng/mL. Moreover, the Kd in [4] is 9 nM.

What is called koff is a measure of how fast the partners let go of each other. A word on the kon: it is the rate constant with which the complex forms. Substance Anti-HER2 S239D A330L I332E (antibody) displayed a CD16a NFAT EC50 in [3] of 0.7 ng/mL. In addition, the Kd in [5] amounted to 95 nM; in [4], 0.12 nM; in [6], 2100 nM; in [7], 37 nM. Further, the koff was 0.049 s⁻¹ in [5], 6.8e-05 s⁻¹ in test [4], 0.38 s⁻¹ in [6] and 0.028 s⁻¹ in test [7]. Also, the kon was 520000 M⁻¹ s⁻¹ in test [5], 590000 M⁻¹ s⁻¹ in test [4], 190000 M⁻¹ s⁻¹ in test [6] and 750000 M⁻¹ s⁻¹ in [7].

Consider rituximab-WT (antibody), for which the EC50 (read off the curve), FcγRIIIa NFAT reporter assay in test [2] came out at 8 ng/mL.

“Anti-HER2 S239D A330L I332E-mcPEG12(10) (antibody)” had a CD16a NFAT EC50 in test [3] of 83.5 ng/mL. For the same substance, the Kd in test [5] was 3800 nM; in [4], 1.2 nM; in test [7], 2900 nM. Also, the koff turned out to be 0.077 s⁻¹ in test [5], 0.00011 s⁻¹ in test [4] and 0.085 s⁻¹ in [7]. In addition, the kon came out at 20000 M⁻¹ s⁻¹ in test [5], 95000 M⁻¹ s⁻¹ in test [4] and 29000 M⁻¹ s⁻¹ in test [7]. Also, the KD Fold change in [8] worked out at 40 fold; in [9], 10 fold; in test [10] it was 78.4 fold.

Consider “Anti-HER2 S239D I332E-mcPEG12(10) (antibody)”, for which the CD16a NFAT EC50 in [3] is 71.2 ng/mL.

For the substance “Anti-HER2 S239D I332E-mcPEG12(8) (antibody)”, the Kd in [4] was 1 nM.
